Test results reported in paper PMC2120665.

Target: anti-SKL-reactive polypeptides
Assay: co-IP

percent of Pay32p present in the complex: 84.6%
B1: Pay32p (natural protein)
chain: MSFMRGGSECSTGRNPLSQFTKHTAEDRSLQHDRVAGPSGGRVGGMRSNTGEMSQQDREMMARFGAAGPEQSSFNYEQMRHELHNMGAQGGQIPQVPSQQGAANGGQWARDFGGQQTAPGAAPQDAKNWNAEFQRGGSPAEAMQQQGPGPMQGGMGMGGMPMYGMARPMYSGMSANMAPQFQPQQANARVVELDEQNWEEQFKQMDSAVGKGKEVEEQTAETATATETVTETETTTEDKPMDIKNMDFENIWKNLQVNVLDNMDEWLEETNSPAWERDFHEYTHNRPEFADYQFEENNQFMEHPDPFKIGVELMETGGRLSEAALAFEAAVQKNTEHAEAWGRLGACQAQNEKEDPAIRALERCIKLEPGNLSALMNLSVSYTNEGYENAAYATLERWLATKYPEVVDQARNQEPRLGNEDKFQLHSRVTELFIRAAQLSPDGANIDADVQVGLGVLFYGNEEYDKAIDCFNAAIAVRPDDALLWNRLGATLANSHRSEEAIDAYYKALELRPSFVRARYNLGVSCINIGCYKEAAQYLLGALSMHKVEGVQDDVLANQSTNLYDTLKRVFLGMDRRDLVAKVGNGMDVNQFRNEFEF
